For 27 sequences, protein stability index results are on record in the supplement of paper PMC9732359.

This data set in a line: protein stability index of a GFP-peptide fusion (yeast GPS) (PSI 1-4); higher = more stable; sorted into four equal gates, so the index is relative within each strain. In outline:
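Plasmids isolated from each sorting gate were PCR-amplified and Illumina-sequenced, and barcodes assigned the reads to strains. The gates, four of equal size, were set by GFP/Cherry fluorescence ratio on mid-log cultures in leucine-free medium. These cultures were yeast carrying a pooled library of tiled 17-residue yeast protein peptides fused downstream of GFP on a plasmid that also expresses Cherry. The protein stability index is the sum of every gate's read frequency times its gate number.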

± gives the uncertainty stated by the source.

For the sequence NKYQIKKAVKELYEVDV [RPL25], the protein stability index stood at 3.03 ± 0.077 (doa10∆), 3.15 ± 0.078 (pdr5∆), 3.12 ± 0.042 (san1∆) and 3.21 ± 0.06 (ubr1∆).
Taken in the same sequence, the figures for NLKYLDNSNVMTVKLES [RGR1] were 2.23 ± 0.18, 1.87 ± 0.11, 2.04 ± 0.19 and 2.66 ± 0.12.
For NLLKFITSNHKSSVPGS [RPN3], in that order: 2.55 ± 0.11, 2.77 ± 0.1, 2.07 ± 0.067 and 2.41 ± 0.087.
Consider NLMILNTKVPVDIVNQW [YML103C/NUP188], for which the protein stability index worked out at 1.68 ± 0.071 (doa10∆), 2.12 ± 0.084 (pdr5∆), 1.84 ± 0.13 (san1∆) and 2.08 ± 0.055 (ubr1∆).
For NLQREIDQAHVSEITKL [RPN14], in that order: 2.61 ± 0.044, 2.81 ± 0.058, 2.75 ± 0.054 and 2.69 ± 0.05.
NLQTADTVIIFDTDWNP [SNF2] came in with a protein stability index (doa10∆) of 2.57 ± 0.14, a protein stability index (pdr5∆) of 2.96 ± 0.091, a protein stability index (san1∆) of 2.8 ± 0.078 and a protein stability index (ubr1∆) of 2.34 ± 0.064.
For NLQVELLSEHDDHNGEV [YGL100W/SEH1], in that order: 3.12 ± 0.088, 3.2 ± 0.071, 2.83 ± 0.06 and 3.37 ± 0.055.
The sequence NLRLKILTIIEEYKKSL [GRR1] showed a protein stability index (doa10∆) of 1.65 ± 0.068, a protein stability index (pdr5∆) of 1.6 ± 0.055, a protein stability index (san1∆) of 1.86 ± 0.083 and a protein stability index (ubr1∆) of 1.61 ± 0.07.
Taken in the same sequence, the figures for NLSVTSPYNADFDGDEM [RPO21] were 2.83 ± 0.063, 3.14 ± 0.059, 2.96 ± 0.061 and 3.04 ± 0.042.
In the case of NLTDEGYQWGEENKDIM [PRP8], the protein stability index stood at 2.81 ± 0.21 (doa10∆) and 3.2 ± 0.23 (ubr1∆).
Regarding NLTRGINLRKVAEKMNG [RPT6], the protein stability index by setting is: (doa10∆) 1.63 ± 0.069; (pdr5∆) 1.47 ± 0.05; (san1∆) 2.31 ± 0.052; (ubr1∆) 1.28 ± 0.044.
Take NLVKEKEALQNNIFKEF [SMC1]: the protein stability index reads like this: (doa10∆) 3.51 ± 0.12; (pdr5∆) 3.06 ± 0.12; (san1∆) 2.99 ± 0.12.
Consider NMLLDPAANESEVANNG [RRP42], for which the protein stability index by setting is: (doa10∆) 2.05 ± 0.082; (pdr5∆) 2.74 ± 0.059; (san1∆) 2.64 ± 0.083; (ubr1∆) 2.34 ± 0.042.
For NMPNCDYLTLNKVVVNL [RPN2], the protein stability index by setting is: (doa10∆) 2.99 ± 0.054; (pdr5∆) 2.88 ± 0.061; (san1∆) 2.58 ± 0.068; (ubr1∆) 3.02 ± 0.051.
In the case of NNANVLGGEINDNEDDD [BRR2], the protein stability index stood at 3.3 ± 0.095 (doa10∆), 3.2 ± 0.082 (pdr5∆), 3.3 ± 0.072 (san1∆) and 2.98 ± 0.061 (ubr1∆).
As for NNAVRFSKQCLISNAIY [ECM29], the protein stability index is, setting by setting: (doa10∆) 1.7 ± 0.078; (pdr5∆) 2.39 ± 0.088; (san1∆) 1.82 ± 0.11; (ubr1∆) 1.08 ± 0.094.
For NNCEDFVSRPDRTMLAP [FAS1], the protein stability index runs as follows: (doa10∆) 3.28 ± 0.25; (pdr5∆) 2.98 ± 0.17; (san1∆) 2.93 ± 0.26; (ubr1∆) 3.2 ± 0.11.
In turn, NNDDDDNSVEQGRRLGE [MCD1] displayed a protein stability index (pdr5∆) of 3.46 ± 0.21 and a protein stability index (ubr1∆) of 3.37 ± 0.12.
As for NNDFKLSIDKVLKKPNR [RET1], the protein stability index is, setting by setting: (doa10∆) 2.06 ± 0.092; (pdr5∆) 2.84 ± 0.12; (san1∆) 3.01 ± 0.1; (ubr1∆) 2.94 ± 0.13.
As for NNDGSYGLFLKYHKEQF [SRB8], the protein stability index reads like this: (doa10∆) 2.61 ± 0.086; (pdr5∆) 2.34 ± 0.07; (san1∆) 2.12 ± 0.12; (ubr1∆) 1.82 ± 0.069.
For NNESNKNNNGDEKNKNN [MED2], in that order: 3.21 ± 0.074, 3.39 ± 0.066, 3.33 ± 0.038 and 3.31 ± 0.051.
For NNGSKDHGDGILLIDSE [RPN9], the protein stability index came to 3.37 ± 0.16 (doa10∆), 3.19 ± 0.17 (pdr5∆), 3.38 ± 0.063 (san1∆) and 3.41 ± 0.21 (ubr1∆).
NNIDQSLILKESGSTPI [YAR002W/NUP60]: the protein stability index reads like this: (doa10∆) 1.85 ± 0.085; (pdr5∆) 1.78 ± 0.1; (ubr1∆) 1.61 ± 0.064.
As for NNIRQAICRYANVIKAL [RRP4], the protein stability index runs as follows: (doa10∆) 1.41 ± 0.11; (pdr5∆) 1.36 ± 0.07; (san1∆) 1.17 ± 0.14; (ubr1∆) 1.43 ± 0.14.
Taken in the same sequence, the figures for NNKFANKIIPNVGLCIT [RPC25] were 2.71 ± 0.07, 3.04 ± 0.082, 2.94 ± 0.054 and 3 ± 0.081.
Take NNLEPRQTTSNTGLLNK [RPN11]: the protein stability index is 3.2 ± 0.062 (doa10∆), 3.24 ± 0.061 (pdr5∆), 3.14 ± 0.044 (san1∆) and 3.32 ± 0.046 (ubr1∆).
Taken in the same sequence, the figures for NNLKNSGNSANNMNVNM [GAL11] were 2.92 ± 0.046, 2.9 ± 0.041, 2.87 ± 0.035 and 3.02 ± 0.039.
